We go through five substances from patent US9260500B2, “Peptide and use thereof” (Takeda Pharmaceutical Company Limited, priority 2009, dated 2016).

The target of assay [1] is T1, human Y2 receptor (Homo sapiens, UniProt P49146).
T1 construct: expressed in transfected cells; membrane fraction
T1 sequence (P49146 1-381): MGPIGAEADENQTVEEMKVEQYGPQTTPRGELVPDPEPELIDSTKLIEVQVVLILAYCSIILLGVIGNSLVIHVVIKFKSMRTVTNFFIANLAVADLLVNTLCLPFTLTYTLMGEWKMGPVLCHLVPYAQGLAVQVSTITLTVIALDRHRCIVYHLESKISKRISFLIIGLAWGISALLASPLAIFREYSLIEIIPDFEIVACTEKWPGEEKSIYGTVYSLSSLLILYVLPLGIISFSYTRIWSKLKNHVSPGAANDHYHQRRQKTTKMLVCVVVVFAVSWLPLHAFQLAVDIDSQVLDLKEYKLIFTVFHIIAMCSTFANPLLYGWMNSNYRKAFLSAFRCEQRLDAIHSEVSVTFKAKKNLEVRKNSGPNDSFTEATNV
Nature of the assay: Receptor Binding Assay (RBA) for Human Y2, [125I]-PYY displacement on hY2R/CHO membrane fraction. The conditions noted are these: IC50 of test compound/IC50 of PYY(3-36) (PYY(3-36) taken as 1). Summed up: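 hY2R stably expressed in CHO/dhfr− cells; membrane fraction prepared from cells disrupted in 10 mM NaHCO3, 5 mM EDTA buffer with protease inhibitors. Binding read as displacement of [125I]-PYY.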

For assay [2], the target named is T1, human Y2 receptor. Nature of the assay: Human Y2 Receptor G Protein Binding Assay (GBA), [35S]GTPγS. The conditions noted are these: EC50 of test compound/EC50 of PYY(3-36) (PYY3-36 taken as 1), hY2R/CHO membrane fraction. It counts as biochemical. Put shortly:
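Agonism measured as [35S]GTPγS binding, read by GF/C filtration and scintillation counting after 120 min at room temperature, using human Y2 membranes at 1 μg protein/mL in pH 7.4 Tris/MgCl2/NaCl/GDP buffer. Compound serially diluted 100 μM–1 nM; EC50 normalized to PYY(3-36) (ratio = compound/PYY).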
In general terms: GTPγS resists hydrolysis and so accumulates on activated G proteins.

Non-standard residues stand in square brackets, D forms with d. Hyp = O=C(O)[C@@H]1C[C@@H](O)CN1; 4Pal = N[C@@H](Cc1ccncc1)C(=O)O; Cha = N[C@@H](CC1CCCCC1)C(=O)O; hSer = N[C@@H](CCO)C(=O)O; Iva = CC[C@](C)(N)C(=O)O; Aib = CC(C)(N)C(=O)O; βAla = NCCC(=O)O

For “Ac-[Glu23, D-Pro24, Pya(4)26, Cha27,36, Aib28,31, Lys30]-PYY(23-36) (Ac-E[dP]R[4Pal][Cha][Aib]NK[Aib]TRQR[Cha]-NH2; SMILES CC(=O)N[C@@H](CCC(=O)O)C(=O)N1CCC[C@@H]1C(=O)N[C@@H](CCCNC(=N)N)C(=O)N[C@@H](Cc1ccncc1)C(=O)N[C@@H](CC1CCCCC1)C(=O)NC(C)(C)C(=O)N[C@@H](CC(N)=O)C(=O)N[C@@H](CCCCN)C(=O)NC(C)(C)C(=O)N[C@H](C(=O)N[C@@H](CCCNC(=N)N)C(=O)N[C@@H](CCC(N)=O)C(=O)N[C@@H](CCCNC(=N)N)C(=O)N[C@@H](CC1CCCCC1)C(N)=O)[C@@H](C)O) [compound No. 209]”, the “RBA IC50 Ratio” value with human Y2 receptor [1] is on record as 2.7. In addition, in the assay with human Y2 receptor [2], the “GBA EC50 Ratio” value was found to be 1.9.

In the case of “Ac-[Glu23, βAla24, Pya(4)26, Cha27,36, Aib28,31, Lys30]-PYY(23-36) (Ac-E[βAla]R[4Pal][Cha][Aib]NK[Aib]TRQR[Cha]-NH2; SMILES CC(=O)N[C@@H](CCC(=O)O)C(=O)NCCC(=O)N[C@@H](CCCNC(=N)N)C(=O)N[C@@H](Cc1ccncc1)C(=O)N[C@@H](CC1CCCCC1)C(=O)NC(C)(C)C(=O)N[C@@H](CC(N)=O)C(=O)N[C@@H](CCCCN)C(=O)NC(C)(C)C(=O)N[C@H](C(=O)N[C@@H](CCCNC(=N)N)C(=O)N[C@@H](CCC(N)=O)C(=O)N[C@@H](CCCNC(=N)N)C(=O)N[C@@H](CC1CCCCC1)C(N)=O)[C@@H](C)O) [compound No. 223]”, the “RBA IC50 Ratio” value with human Y2 receptor [1] came out at 7.4. Moreover, the “GBA EC50 Ratio” value with human Y2 receptor [2] is on record as 3.9.

Consider “Ac-[Hse23, D-Pro24, Cha27,28,36, Aib31]-PYY(23-36) (Ac-[hSer][dP]RH[Cha][Cha]NL[Aib]TRQR[Cha]-NH2; SMILES CC(=O)N[C@@H](CCO)C(=O)N1CCC[C@@H]1C(=O)N[C@@H](CCCNC(=N)N)C(=O)N[C@@H](Cc1c[nH]cn1)C(=O)N[C@@H](CC1CCCCC1)C(=O)N[C@@H](CC1CCCCC1)C(=O)N[C@@H](CC(N)=O)C(=O)N[C@@H](CC(C)C)C(=O)NC(C)(C)C(=O)N[C@H](C(=O)N[C@@H](CCCNC(=N)N)C(=O)N[C@@H](CCC(N)=O)C(=O)N[C@@H](CCCNC(=N)N)C(=O)N[C@@H](CC1CCCCC1)C(N)=O)[C@@H](C)O) [compound No. 157]”, for which the “RBA IC50 Ratio” value in the assay with human Y2 receptor [1] amounted to 2.5. Besides, the “GBA EC50 Ratio” value with human Y2 receptor [2] stood at 1.6.

For “Ac-[Hyp23, D-Pro24, Cha27,28,36, Aib31]-PYY(23-36) (Ac-[Hyp][dP]RH[Cha][Cha]NL[Aib]TRQR[Cha]-NH2; SMILES CC(=O)N1C[C@H](O)C[C@H]1C(=O)N1CCC[C@@H]1C(=O)N[C@@H](CCCNC(=N)N)C(=O)N[C@@H](Cc1c[nH]cn1)C(=O)N[C@@H](CC1CCCCC1)C(=O)N[C@@H](CC1CCCCC1)C(=O)N[C@@H](CC(N)=O)C(=O)N[C@@H](CC(C)C)C(=O)NC(C)(C)C(=O)N[C@H](C(=O)N[C@@H](CCCNC(=N)N)C(=O)N[C@@H](CCC(N)=O)C(=O)N[C@@H](CCCNC(=N)N)C(=O)N[C@@H](CC1CCCCC1)C(N)=O)[C@@H](C)O) [compound No. 126]”, the “RBA IC50 Ratio” value with human Y2 receptor [1] amounted to 7.3. Further, the “GBA EC50 Ratio” value in the assay with human Y2 receptor [2] stood at 5.0.

Consider “Ac-[Iva23, D-Pro24, Cha27,28,36, Aib31]-PYY(23-36) (Ac-[Iva][dP]RH[Cha][Cha]NL[Aib]TRQR[Cha]-NH2; SMILES CC[C@](C)(NC(C)=O)C(=O)N1CCC[C@@H]1C(=O)N[C@@H](CCCNC(=N)N)C(=O)N[C@@H](Cc1c[nH]cn1)C(=O)N[C@@H](CC1CCCCC1)C(=O)N[C@@H](CC1CCCCC1)C(=O)N[C@@H](CC(N)=O)C(=O)N[C@@H](CC(C)C)C(=O)NC(C)(C)C(=O)N[C@H](C(=O)N[C@@H](CCCNC(=N)N)C(=O)N[C@@H](CCC(N)=O)C(=O)N[C@@H](CCCNC(=N)N)C(=O)N[C@@H](CC1CCCCC1)C(N)=O)[C@@H](C)O) [compound No. 178]”, for which the “RBA IC50 Ratio” value in the assay with human Y2 receptor [1] was determined as 13. Further, the “GBA EC50 Ratio” value with human Y2 receptor [2] is reported as 17.
